Assay results from PMC12516131.

Legend:
[1] = target: GMPCPP- and paclitaxel-stabilised microtubules (porcine brain tubulin) (porcine (brain tubulin)); assay: single-molecule TIRF microscopy on microtubules; 2 nM eGFP–POK2^2083–2771 in PEM20-based Reaction Buffer on unlabelled stabilised microtubules (IRM); kymographs, landing rate and interaction times of diffusive particles
[2] = target: GMPCPP- and paclitaxel-stabilised microtubules (porcine brain tubulin) (porcine (brain tubulin)); assay: TIRF microscopy microtubule binding assay; 10% rhodamine-labelled GMPCPP/paclitaxel microtubules immobilised on glass by anti-β-tubulin antibody; eGFP–POK2 fragment at increasing concentrations in PEM20-based Reaction Buffer (20 mM K-PIPES pH 6.9, 1 mM MgCl2, 1 mM EGTA, casein, 1 mM ATP, 5 mM DTT); intensity per microtubule length; Hill–Langmuir fit
[3] = target: eGFP–POK2^2083–2440 (Arabidopsis thaliana); assay: native gel or EMSA; blue native PAGE, 4–12% Tris-Glycine gels, 100 ng of each protein per lane, anti-GFP western blotting and silver staining; oligomeric state in solution

Substance	interaction time (subpopulation 1) [1] [s]	interaction time (subpopulation 2) [1] [s]	interaction time (subpopulation 3) [1] [s]	landing rate at 2 nM [1] [µm^−1 min^−1]	Kd [2] [µM]	stoichiometry N [3]
eGFP–POK2^2083–2771–8×His (domain or fragment)	0.9	6	43	0.16	0.106	
eGFP–POK2^2083–2440 (domain or fragment)						2
